The supplement of paper PMC10567573

B1: SEC22B (parent)
chain: AKQLFRKLNEQSPTRCTLEAGAMT
B2: MCOLN1 (parent)
chain: EEEDLRRRLKYFFMSPCDKFRAKG

Variants of: B1
Test: protein stability index of a GFP-peptide fusion (GPS, HEK-293T) (PSI 1-6); higher = more stable
Conditions: c terminus: a fixed tail appended
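Note: lentivirally expressed fusions sorted by FACS into six bins by GFP to DsRed ratio, PSI derived from sequencing read proportions per bin multiplied by bin number.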

Protein stability index of substitutions, site by site:
G21: F 2.42 | S 2.51 | Y 1.95 | T 1.86 | C 2.58 | K 2.11 | H 1.94 | P 2.38 | Q 1.68 | I 1.88 | E 2.56 | N 2.18 | L 2.12 | A 1.96 | D 2.99 | M 1.34 | W 1.61 | R 2.4 | V 4.07
T24: C 2.26 | H 2.06 | S 2.19 | E 2.09 | D 2.39 | G 2.49 | F 1.99 | M 2.59 | Y 2.36 | R 2.14 | I 1.92 | V 1.99 | K 2.29 | P 1.72 | W 2.19 | N 1.98 | Q 2.39 | A 1.82 | L 2.13
C16: P 3.96 | T 3.64 | M 3.08 | Y 2.79 | W 2.52 | S 3.66 | Q 3.47 | L 3.19 | V 2.53 | R 3.27 | N 3.74
L18: G 2.48 | S 3.26 | N 3.17 | W 1.94 | Q 2.71 | E 3.47 | T 2.84 | R 2.46 | Y 1.89 | D 3.92 | I 2.35 | F 2.09 | M 2.16 | P 3.24 | V 2.78 | C 2.66 | A 3.25 | K 2.7 | H 2.64
M23: V 1.81 | W 2.19 | I 2.04 | A 2.09 | P 2.7 | N 2.61 | C 2.18 | K 2.45 | G 2.85 | L 2.47 | Q 2.81 | R 2.26 | D 2.77 | S 2.7 | Y 2.37 | H 2.25 | F 1.72 | T 2.22 | E 2.59
T17: D 3.48 | R 2.69 | Y 1.61 | N 2.22 | K 1.94 | A 1.81 | W 2.28 | S 1.81 | C 2.4 | I 1.86 | F 1.6 | V 2.18 | H 2 | Q 2.4 | E 3.23 | P 2.77 | G 1.69 | L 2.13 | M 2.46
A20: M 3.4 | G 3.5 | D 3.07 | S 2.99 | K 3.02 | T 2.96 | L 2.27 | Y 2.01 | F 1.34 | V 2.49 | R 2.77 | P 2.65 | H 2.47 | E 3.22 | N 3.08 | Q 2.87 | I 2.27 | C 1.64 | W 1.59
A22: S 2.27 | N 2.8 | Y 2.41 | E 2.53 | Q 1.88 | K 1.79 | H 1.82 | I 2.17 | G 2.35 | W 3.6 | V 1.89 | P 2.25 | M 2.07 | T 1.84 | L 1.58 | D 2.33 | R 2.14 | C 2.07 | F 1.49
E19: V 1.75 | W 2.22 | L 2.35 | A 2.28 | K 2.47 | N 2.95 | R 2.49 | T 2.56 | S 2.94 | G 2.12 | F 1.41 | H 2.46 | D 3.05 | M 2.15 | Y 2.18 | Q 2.87 | P 2.99 | I 1.64 | C 2.52

Variants of: B2
Test: as above
Conditions: c terminus: a fixed tail appended

Protein stability index: each site, then its substitutions
C17: L 2.19 | N 2.89 | G 2.69 | P 2.9 | M 1.97 | D 3.08 | F 2.1 | K 2.1 | E 3.23
R21: N 3.01 | S 3.1 | L 2.19 | P 3.09 | V 2.56 | H 3.28 | Q 3.04 | C 2.65
E3: W 1.14 | I 1.64 | V 2.83 | G 2.12 | F 2.04 | R 2.15 | Y 1.85 | H 2.33 | A 1.62 | T 1.52
S15: T 3.1 | L 2.05 | V 2 | P 1.65 | A 2.42 | I 1.82 | R 2.91
R6: S 3.6 | W 1.8 | A 3.18 | H 1.97 | Q 3.04 | L 1.76 | D 3.28 | K 1.9
R7: V 2 | H 2.73 | W 1.91 | Q 2.52 | T 2.65 | D 3.01 | N 2.55 | A 2.35
P16: M 1.78 | R 2.26 | T 2.68 | H 2.09 | G 1.92 | C 1.84 | D 3.12 | K 2.61 | W 2.19
K10: C 2.15 | T 2.15 | F 1.82 | N 3.21 | M 1.93 | W 2.1 | G 2.58
G24: K 3.11 | M 2.29 | S 2.57 | E 3.07 | N 2.35 | T 2.52 | I 2.37
E2: G 1.67 | T 1.72 | R 3.07 | S 1.86 | W 4.34 | Q 2.27 | H 2.72 | N 1.96
E1: M 2.08 | Y 2.27 | T 3.34 | S 2.24
A22: G 2.67 | C 1.97 | I 1.91 | Q 2.13 | E 2.18 | N 2.21
Y11: P 3.33 | I 1.93 | L 2.23 | F 2.88 | R 2.38 | S 2.88 | T 2.82
D18: E 1.94 | A 1.91 | R 1.93 | M 2.35 | T 1.53 | W 2.25 | G 2.06
D4: E 2.08 | N 2.04 | M 1.48 | K 1.83 | G 3.22 | W 1.44 | V 1.74
F12: V 2.65 | W 2.39 | H 2.5 | M 2.91 | R 2.91 | E 3.9 | G 3.43
L9: I 1.92 | E 4.4 | K 2.89 | Y 2.97 | C 3.03 | V 3.15 | P 3.64 | Q 3.7 | A 3.3 | R 3.35
K19: A 2.21 | S 2.4 | Y 2.75 | F 2.21 | N 2.48 | D 2.45 | R 1.55 | W 1.69
R8: F 1.42 | D 3.11 | S 2.67 | C 1.86
K23: D 3.56 | M 1.33 | H 1.84 | E 2.47 | F 1.64
F13: G 3.78 | T 3.61 | V 3.45 | R 3.54 | I 3.15 | H 3.75 | M 2.67 | W 3 | Y 3.81
L5: W 2.91 | D 3.43 | S 2.92 | A 2.91 | P 3.17 | V 3.09
F20: P 3.59 | H 2.61 | I 2.14 | V 3.06 | W 2.21 | Q 3.23
M14: W 3.05 | I 2.87 | Q 3.04 | V 2.66
